Results on 2 substances are retold here after article PMC5872582.

This assay addresses L1 ORF1p-T7 (T7-tagged ORF1 protein expressed from the L1 construct pAD2TE1) (human) (UniProt Q9UN81). Put plainly: co-IP; 293T cells cotransfected with pAD2TE1 and the partner; lysis 48 h posttransfection in 160 mM NaCl, 50 mM Tris-HCl pH 7.5, 1 mM EDTA, […] NP-40 with RNaseOUT; ORF1p-T7 precipitated with anti-T7 monoclonal antibody on magnetic beads; immunoblot; signals normalized on T7 signal in IP and myc signal in WCL.
Sequence of UniProt Q9UN81 (Q9UN81 whole entry): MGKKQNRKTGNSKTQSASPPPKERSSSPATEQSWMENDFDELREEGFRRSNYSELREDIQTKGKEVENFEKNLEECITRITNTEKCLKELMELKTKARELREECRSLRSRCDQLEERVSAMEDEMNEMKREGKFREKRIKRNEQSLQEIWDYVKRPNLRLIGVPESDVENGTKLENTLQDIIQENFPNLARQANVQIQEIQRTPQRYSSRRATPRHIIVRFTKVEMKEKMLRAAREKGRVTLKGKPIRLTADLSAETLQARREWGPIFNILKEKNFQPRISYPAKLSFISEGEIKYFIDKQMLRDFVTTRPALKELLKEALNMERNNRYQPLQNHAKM

For the substance “human SAMHD1 T592A, myc-tagged (from UniProt Q9Y3Z3 1-626) (natural protein)”, the normalized densitometric intensity of the co-precipitated band stood at 100%. Under “human SAMHD1 T592D, myc-tagged (from UniProt Q9Y3Z3 1-626) (natural protein)” stands 24%.
